Measured values published in patent publication US20220220224A1 (Hoffmann-La Roche, published 2022).
Read-outs that look alike come from different tables or passages of the source.

Assays:
[1] = biological target: T1, recombinant biotinylated monomeric Fc fusion of human Folate Receptor 1 (huFolR1 ECD-AcTev-Fcknob-Avi tag … (human, UniProt P0DOX5 223-449 = IgG part, biotin on the C-terminal Avi tag)); assay: SPR Biacore, affinity (monovalent), antibody captured via anti-Fab, steady state
T1 construct: also called huFolR1-Fc; human FolR1-Fc
Method: The affinity of the interaction between the anti-FolR1 IgGs or the T cell bispecifics and the recombinant folate receptors was determined as described below (Table 42).
For affinity measurement, direct coupling of around 10000 resonance units (RU) of the anti-human Fab specific antibody (Fab capture kit, GE Healthcare) was performed on a CM5 chip at pH 5.0 using the standard amine coupling kit (GE Healthcare). Anti-FolR1 IgGs or T cell bispecifics were captured at 200 nM with a flow rate of 10 ul/min for 40 sec, the reference flow cell was left without capture. Dilution series (12.35 to 3000 nM) of human Folate Receptor 1 Fc fusion were passed on all flow cells at 30 μl/min for 240 sec to record the association phase. The dissociation phase was monitored for 300 s and triggered by switching from the sample solution to HBS-EP. The chip surface was regenerated after every cycle using a double injection of 60 sec 10 mM Glycine-HCl pH 1.5. Bulk refractive index differences were corrected for by subtracting the response obtained on the reference flow cell 1. […]

[2] = biological target: T2, recombinant biotinylated monomeric Fc fusion of cynomolgus Folate Receptor 1 (cy FolR1 ECD-AcTev-Fcknob-Avi … (cynomolgus, UniProt P0DOX5 223-449 = IgG part, biotin on the C-terminal Avi tag)); assay: SPR Biacore, avidity (bivalent, apparent KD), antigen-Fc on SA chip
T2 construct: also called cyFolR1-Fc; cyno FolR1
Method: (§1) The avidity of the interaction between the anti-FolR1 IgGs or T cell bispecifics and the recombinant folate receptors was determined as described below (Table 41).
(§2) Recombinant biotinylated monomeric Fc fusions of human, cynomolgus and murine Folate Receptor 1 (FolR1-Fc) were directly coupled on a SA chip using the standard coupling instruction (Biacore, Freiburg/Germany). The immobilization level was about 300. […] The dissociation was monitored for 240 or 600 seconds. Bulk refractive index differences were corrected for by subtracting the response obtained on reference flow cell immobilized with recombinant biotinylated murine IL2 receptor Fc fusion. The binding curves resulting from the bivalent binding of the IgG or T cell bispecifics were approximated to a 1:1 Langmuir binding (even though it is a 1:2 binding) and fitted with that model to get an apparent KD representing the avidity of the bivalent binding. The apparent avidity constants for the interactions were derived from the rate constants of the fitting using the Bia Evaluation software (GE Healthcare). For low affinity kinetics with association and dissociation phases too fast to be fitted by the 1:1 Langmuir binding model, the steady state analysis model was applied using the Bia Evaluation software (GE Healthcare). The steady state analysis gives the KD of the binding reaction at equilibrium.

[3] = biological target: T1, recombinant biotinylated monomeric Fc …; assay: as above
Method: as §1, §2

[4] = biological target: T3, human FolR1 expressed on cells (HeLa, SKOV3, HT-29, transfected HEK cells) (human, UniProt P15328 25-234); assay: cell-based or functional assay
T3 sequence (P15328 25-234): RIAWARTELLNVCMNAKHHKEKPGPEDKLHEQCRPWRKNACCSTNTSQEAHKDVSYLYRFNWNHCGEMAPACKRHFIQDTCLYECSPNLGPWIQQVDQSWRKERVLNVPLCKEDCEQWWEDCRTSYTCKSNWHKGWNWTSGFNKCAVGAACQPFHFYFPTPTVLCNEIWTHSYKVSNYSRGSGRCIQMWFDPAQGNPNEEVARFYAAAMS

[5] = biological target: T3, human FolR1 expressed on cells (HeLa, …); assay: cell-based or functional assay; remark: listed apart in the source
[6] = biological target: T2, recombinant biotinylated monomeric Fc …; assay: SPR Biacore, affinity (monovalent), antibody captured via anti-Fab, steady state analysis
Method: (§3) All SPR experiments were performed on a Biacore T200 at 25° C. with HBS-EP as running buffer (0.01 M HEPES pH 7.4, 0.15 M NaCl, 3 mM EDTA, 0.005% Surfactant P20, Biacore, GE Healthcare). The molecules used for affinity and avidity determination are described in Table 45.
(§4) For affinity measurement, direct coupling of around 12000 resonance units (RU) of the anti-human Fab specific antibody (Fab capture kit, GE Healthcare) was performed on a CM5 chip at pH 5.0 using the standard amine coupling kit (GE Healthcare). Anti-FolR1 T cell bispecifics were captured at 20 nM with a flow rate of 10 μl/min for 40 sec, the reference flow cell was left without capture. […] The dissociation phase was monitored for 300 s and triggered by switching from the sample solution to HBS-EP. The chip surface was regenerated after every cycle using a double injection of 60 sec 10 mM Glycine-HCl pH 2.1. Bulk refractive index differences were corrected for by subtracting the response obtained on the reference flow cell 1. The affinity constants for the interactions were derived from the rate constants by fitting to a 1:1 Langmuir binding using the Bia Evaluation software (GE Healthcare). For low affinity kinetics with association and dissociation phases too fast to be fitted by the 1:1 Langmuir binding model, the steady state analysis model was applied using the Bia Evaluation software (GE Healthcare). The steady state analysis gives the KD of the binding reaction at equilibrium.

[7] = biological target: T1, recombinant biotinylated monomeric Fc …; assay: as above
Method: as §3, §4

[8] = biological target: T1, recombinant biotinylated monomeric Fc …; assay: SPR Biacore, affinity (monovalent)
[9] = biological target: T2, recombinant biotinylated monomeric Fc …; assay: SPR Biacore, avidity (bivalent, apparent KD), antigen-Fc on SA chip; remark: listed apart in the source
[10] = biological target: T1, recombinant biotinylated monomeric Fc …; assay: as above; remark: listed apart in the source
[11] = biological target: T4, recombinant biotinylated monomeric Fc fusion of human Folate Receptor 2 (hu FolR2 ECD-AcTev-Fcknob-Avi tag … (human, UniProt P0DOX5 223-449 = IgG part, biotin on the C-terminal Avi tag)); assay: SPR Biacore, single injection on immobilized antigen-Fc
T4 construct: also called FolR2-Fc
Method: as §3
(§5) First the anti-FolR1 TCBs were analyzed by single injections (Table 46) to characterize their crossreactivity (to human, murine and cyno FolR1) and specificity (to human FolR1, human FolR2, human FolR3). Recombinant biotinylated monomeric Fc fusions of human, cynomolgus and murine Folate Receptor 1 (FolR1-Fc) or human Folate Receptor 2 and 3 (FolR2-Fc, FolR3-Fc) were directly coupled on a SA chip using the standard coupling instruction (Biacore, Freiburg/Germany). The immobilization level was about 300-400 RU. The TCBs were injected for 60 seconds at a concentration of 500 nM.

[12] = biological target: T5, recombinant biotinylated monomeric Fc fusion of murine Folate Receptor 1 (mu FolR1 ECD-AcTev-Fcknob-Avitag … (murine, UniProt P0DOX5 223-449 = IgG part, biotin on the C-terminal Avi tag)); assay: as above
T5 construct: also called muFolR1-Fc; murine FolR1
Method: as §3, §5

[13] = biological target: T6, recombinant biotinylated monomeric Fc fusion of human Folate Receptor 3 (hu FolR3 ECD-AcTev-Fcknob-Avi tag … (human, UniProt P0DOX5 223-449 = IgG part, biotin on the C-terminal Avi tag)); assay: as above
T6 construct: also called FolR3-Fc
Method: as §3, §5

[14] = biological target: T1, recombinant biotinylated monomeric Fc …; assay: SPR Biacore, avidity (bivalent)

B1: 16D5 IgG variant W98Y/wt (HC/LC) (antibody, V domains shown)
VH: not shown
VL: QAVVTQEPSLTVSPGGTVTLTCGSSTGAVTTSNYANWVQEKPGQAFRGLIGGTNKRAPGTPARFSGSLLGGKAALTLSGAQPEDEAEYYCALWYSNLWVFGGGTKLTVL
notes: IgG
Kd [1]: 5400 nM
Kd [2]: 200 nM
koff [2]: 0.0361 s⁻¹
kon [2]: 171000 M⁻¹ s⁻¹
Kd [3]: 240 nM
koff [3]: 0.0328 s⁻¹
kon [3]: 136000 M⁻¹ s⁻¹

B2: 16D5 W96Y/D52E TCB (2+1 inverted, common light chain) (bispecific antibody)
heavy 1: not shown
heavy 2: not shown
light: QAVVTQEPSLTVSPGGTVTLTCGSSTGAVTTSNYANWVQEKPGQAFRGLIGGTNKRAPGTPARFSGSLLGGKAALTLSGAQPEDEAEYYCALWYSNLWVFGGGTKLTVLGQPKAAPSVTLFPPSSEELQANKATLVCLISDFYPGAVTVAWKADSSPVKAGVETTTPSKQSNNKYAASSYLSLTPEQWKSHRSYSCQVTHEGSTVEKTVAPTECS
EC50 of T-cell killing of Hela, 24 h [4]: 0.0013 nM
EC50 of T-cell killing of SKov-3, 24 h [4]: 0.235 nM
EC50 of T-cell killing of HT-29, 48 h [5]: 0.399 nM
EC50 of T-cell killing of Hela, 48 h [5]: 0.0009 nM
EC50 of T-cell killing of SKov-3, 48 h [5]: 0.093 nM
Kd [6]: 5600 nM
Kd [7]: 1400 nM
fold lower affinity than 16D5 WT (57 nM) [8]: 24.5 fold
Kd [9]: 30 nM
koff [9]: 0.0141 s⁻¹
kon [9]: 517000 M⁻¹ s⁻¹
Kd [10]: 10 nM
koff [10]: 0.0014 s⁻¹
kon [10]: 124000 M⁻¹ s⁻¹
binding result [11]: no binding (tested: 500 nM)
binding result [12]: no binding (tested: 500 nM)
binding result [13]: no binding (tested: 500 nM)
fold lower avidity than 16D5 WT (3 nM) [14]: 3 fold
